Assays:
[1] = target: T1, MOR1 (endogenous, mouse spinal cord) (mouse, UniProt P42866 1-398); assay: co-IP with anti-MOR1 antibody from spinal cord membrane preparation, immunoblot for GRPR
T1 construct: Untagged native receptor; precipitated with a rabbit anti-MOR1 antibody (Neuromics)

[2] = target: T2, MOR1D (endogenous, mouse spinal cord) (mouse, UniProt P42866-9 1-393); assay: co-IP with anti-MOR1D antibody from spinal cord membrane preparation, immunoblot for GRPR
T2 construct: Untagged native receptor in spinal cord membrane preparations and sections; MOR1D is a splice isoform of it; also called spinal MOR1D
T2 sequence (P42866 1-386, tags or fused parts left off): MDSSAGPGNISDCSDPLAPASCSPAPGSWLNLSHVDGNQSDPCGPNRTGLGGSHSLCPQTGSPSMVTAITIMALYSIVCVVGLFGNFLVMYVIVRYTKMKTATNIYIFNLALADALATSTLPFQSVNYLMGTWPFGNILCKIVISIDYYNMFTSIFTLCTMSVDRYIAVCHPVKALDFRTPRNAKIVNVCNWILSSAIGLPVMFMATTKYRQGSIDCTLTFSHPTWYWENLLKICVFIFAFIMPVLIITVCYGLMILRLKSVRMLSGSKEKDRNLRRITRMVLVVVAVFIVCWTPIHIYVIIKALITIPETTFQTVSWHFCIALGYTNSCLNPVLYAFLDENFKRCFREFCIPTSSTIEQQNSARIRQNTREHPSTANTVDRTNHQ

T1 sequence (P42866 whole entry): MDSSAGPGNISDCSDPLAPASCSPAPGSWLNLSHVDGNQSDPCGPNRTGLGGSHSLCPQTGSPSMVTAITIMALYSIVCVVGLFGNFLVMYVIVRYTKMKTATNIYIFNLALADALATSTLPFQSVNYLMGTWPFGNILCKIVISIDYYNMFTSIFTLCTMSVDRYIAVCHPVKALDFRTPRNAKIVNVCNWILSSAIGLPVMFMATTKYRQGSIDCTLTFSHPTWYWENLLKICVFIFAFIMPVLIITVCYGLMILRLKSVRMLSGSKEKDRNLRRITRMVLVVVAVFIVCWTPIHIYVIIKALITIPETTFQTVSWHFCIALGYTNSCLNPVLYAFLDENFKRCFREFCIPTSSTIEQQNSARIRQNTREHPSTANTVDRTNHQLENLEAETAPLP

B1: GRPR (endogenous, mouse spinal cord) (receptor, UniProt P21729 1-384, looked up)
chain: MAPNNCSHLNLDVDPFLSCNDTFNQSLSPPKMDNWFHPGFIYVIPAVYGLIIVIGLIGNITLIKIFCTVKSMRNVPNLFISSLALGDLLLLVTCAPVDASKYLADRWLFGRIGCKLIPFIQLTSVGVSVFTLTALSADRYKAIVRPMDIQASHALMKICLKAALIWIVSMLLAIPEAVFSDLHPFHVKDTNQTFISCAPYPHSNELHPKIHSMASFLVFYVIPLAIISVYYYFIARNLIQSAYNLPVEGNIHVKKQIESRKRLAKTVLVFVGLFAFCWLPNHVIYLYRSYHYSEVDTSMLHFVTSICARLLAFTNSCVNPFALYLLSKSFRKQFNTQLLCCQPGLMNRSHSTGRSTTCMTSFKSTNPSATFSLINRNICHEGYV
notes: Untagged native receptor in spinal cord membrane preparations; also called gastrin-releasing peptide receptor
binding result [1]: no binding
binding result [2]: binds

Reference: US20130065832A1 (WASHINGTON UNIVERSITY, published 2013)
